The record followed here is a protein production outcome set (Wang et al. 2014).

The series in a line: label from the status in PepcDB records.
As for “MNNTDCLLGRRKEINETAYANVLKKELVVYMKRKLMIFFIASVVTLLICSVAVLASGEDVHILINNNGIKFSIPPYVKDEEVFLPMREIFELYGFEVNWNGTERSAEAAKDGKIVKVKVGSNIVKLYGEDYNSKDDVFIFRDRIFISTDVIEAGLNIKVKWDKNKRTIYLNEYTNESITIVGNDNSVILGSNILVNISPRYDIDTVNKIIGENDEMLVEKNYTGAIRGYKELLKHISAKENPEEYIHVLINLGNAYVELASIVNREQNALEAILFYEEALKVDSIDKYPHKKALANRGMGSAYFILSTVRDVEKNTAKALEMFNEALNIFVKDGDQYNCGYLHYLKGRTYYWMAASTNTRDNIIKSLDSLEEALTTFNTENYKDEYIIARSCHGLVLTQFFNFSGEVEHLQRAFDAFNEVLDNITIEEKPILYASTYMQLASYYMYLANKDGDVESYYKCISCMQESLKVYTLDSDSYNYAVAYANIGKAYLLMSYLSQTNVNIDRALSAYEEALKVFKISQFPFNYASVQIDLGEAYTVKAGITGSEEDYNNAQNAFNNALKIYTLKNYPYQYAKTYSEFGKMYIALAYIKDKEENNKKAIECFNEALKVYSFEKYPVLYGYNQELIALSNIELSKIRDPKKHLNKSVEVCNNALKVFRKENIPYLYGVVNIYLGNSYTFLASIENTKENCIQAEKAYMNALEIFTKDASLTYYLEAMTGLAENYVIKSQVENRKENLEKAIAKCNDIIELLDRHRSSPYYGKAQYILLLSYLGLSDFENKEVNLNKALIANREAVSVFEEGNLVFDKSIALAAGANIYLKYSEVNNTVKNLTEAKRTVESALTYFKKENYPYQYAILMNSMGTIYQKLSEKENRIDNLKKSIEAYKEANEIFSIEEYGLYFAKTKHDMGDVYMKLAGSEDRKANIQKALECFSEAIRIYTNEDYPLIHEEIIKKMENIKK”, the protein production result is listed as “failed”.
Then “MGKNIPSSLDLYPIIHNYLQEDDEILDIGCGSGKISLELASLGYSVTGIDINSEAIRLAETAARSPGLNQKTGGKAEFKVENASSLSFHDSSFDFAVMQAFLTSVPDPKERSRIIKEVFRVLKPGAYLYLVEFGQNWHLKLYRKRYLHDFPITKEEGSFLARDPETGETEFIAHHFTEKELVFLLTDCRFEIDYFRVKELETRTGNKILGFVIIAQKLLEHHHHHH”, with “not failed”; and “MPSSSLDISSALMIISLCALIDILSPGVLTVTAYLLLTQPNQLSSRLFVFLFITQLGYFITGLLLYFGGNSLLKRIEQLSQFDFINWFYILLGAVLVLISFSKPKETAKKRLISFIPKNTTIKGMIILGIIVFLIEFVTALPYFYSIFLMNHQTIETTPAILIIIGYNLVMVLPSLLLLGVNIIFKERLQQFLIKIRSKLNEAPISSLLVATGVIGAVFFNIGLRGILN”, with “failed”; and “MAGALITASAACAEDAPDFRLDLDTGGHTARIARLAFTPDGEDIVSASDDKTIRIWDWQSGVTLRTIRGYLGNGSDGKIFAVSVSPDGKTIAAGGYFGAGLGDKPPYGDIRLFDFATGKMKAVLRAADYATYDLAFSPDGKTLAAGGGDGMVYLWRLDDKSATGWTLDKKLDADSWHIDKLAFAAAGTRLAATTTDNGIRLWDVAKGEEIALPDEAEPLRDVSVLALAISQDGSLFATGSKDGQVQLWRAADGTLVHAMPKQDFLIGSLTFAKGSRLVASCGYRCADKHRSIVWNTDSGEKLLDYSGHDGTVYASAANADGSLVATAGGTRNAIQVWDPATGERKALLQGVGEPVTAIGIDAANGIIAWGNTNPCPERVACPEQLGALDKRLELPTTERFFDDPQPLTEPGSFARAAQSDGEWSLHATKGGKDALENAVLEIANGGKVVRSIENDATNGFAHSAFTLIDNGLGLITGGNDGTLLEYKAATARVSGEFTGHTGEINAMAASEKAGLLVTGSADQTLRLWNLKTHELIVSMFFAGPQWIAWMPQGYYYSSDEGDKLIGWHVNQGRDHEGRFIRAGQLKKYLWSPEMVRRAIILRSAKQAVKEMRPGVDNELQKLLQRKPPEFGVRLADDQSKVRDGYVAVEITGAKEAGTDVAGFSILSNSRNVGDIATRSAEGDKTTVEVPVENGQNTIRITGTNEYGYLTERSVTALARKTEKAEAKGKLYVAVIGVDKYPFLTDACSGHACDLRYPVDDATEFLEVVAQKSAPLFSSMETLVLVNREALDESPDKAKQTYTVASADNIMEPDSHTIDDQLADFLDRPGEHDTTIVFVAGHGINIDEDYYFIPTDGRKQDADRWKRSSLVDWGDIQKSVERAKGMRFMLLDTCHAANAFNPRLEKDAQDARIVVFSATAANNTAAELPELGHGVFTYSILEGLRGKARTSDGGITLFGLADFISHEVVRLTASKQKPFYYVGGVENIVLAEP”, with “failed”.
For “MPRGLILATPQLPPDGTPFSARYDDVYHSTEGGLAQAHHVFLGGNGLPGGWQGKRSFTIVETGFGQGLNFLATWAAWRDDPQRCGRLDFVSVEKHPFDRAGLALVHAQEGALASLAEALRQAWPVPVPGVHRLVFDAGRVTLTLMLGDAETLLPQLSCAADAFYLDGFSPAKNPDLWQPGVFKQLARIARGGATLATYTAAGAVRHGLREAGFEVRKAPGFGRKRDMTVAAFPTHWRTRRGPAEAPVWPERHAIVLGAGLAGCSVAERLAARGWRITLIDEHEAPAGGASAHRAAAMHPHVSIDDSVLSRLSRAGNLLARRHWEALDRAGFATGFHPTGVLQLAEHADDAAEQQRIVQALGFPADFIAWLDAARAADRVGAGVPQGGWWFAQAGWVAPPDICRAALAAAGEAVELRWRTRIESLLRHDAGWRACDAQGNVIAHAPVVVLANSLDAVRLAPLASAALKPVRGQLTDVPVAALEDGVPWPRAVVCGDGYLLPRERGAPTVRVGSSFQPGETDPDARTADHAANLRRLAGLQPAHAAALARVDPARLLGYVGVRCVSANRLPLIGAVADEAAIMAPGFRLRGPHAALPRVPGLYAALAYGSRGLTWSVLGAELLAAQIDGGPLPLESELAAALDPGRFLMRALRHGKHAA”, the protein production entry is given as “failed”.
To “MDESAALRAFQDALRTQRPEFGQFFLARLLGLDISYPDGQCLIVFEPQDFLFNPQGSLHGGIIATVMDISMGHLLNHVQGAGLTLEMKTQYLKAVRQGTVYCRGEFLQRGRSVSFLKSTLTDAQGEPLAMATSTWKALSPLEHHHHHH” belongs “not failed”; to “MHLLQAVSYRYLILAVIGLPEKYRKPQALACHHRRTAMNRLSAFALAAAIGIAAAPVAQAGELWRATGLEQPESALFDAANNRIIVSNIVGNPGEADGNGYLSVLSLDGKTITQHWTDGMDAPKGMAISGGKLYVADITKVRVVDLASGKLIASIVVPNAVFLNDMTSDHTGKVYVSDMLADTIYRIDGDRPELFVRDALLASPNGVFADGDRLIVASWGKGIKPDFSTAEPGGLLAVDLASKAVSPLPGAQKFADLDGVIAIGDTIYATAYMTGTLYRYKAGGAPEAVAHFKPGSADIGTDGKSILYVPLMNEGEVAALKLD”, “failed”; to “MRGSHHHHHHTDPALRAATLLQLHFAFNGPFGDAMAEQLKPLAESINQEPGFLWKVWTESEKNHEAGGIYLFTDEKSALAYLEKHTARLKNLGVEEVVAKVFDVNEPLSQINQAKLAGLCGR”, “not failed”.
Then “MGDPQVNDTLAPSARHEGDALASAVAKVKRHVLPLFVIMFIVNYLDRVNIGFVRPHLESDLGISAAAYGFGAGLFFIGYALFEVPSNMLLQKVGARLWLTRIMFTWGLVATAMAFVQNETQFYVLRFLLGVAEAGFFPGVIYYFTRWLPAAERGKAIAIFLSGSALASLISGPLAGALMQIQGLGLHGWQWMLFIEGMASVALCFFVFFWLDSKPQDAKWLSKAEQDALVATIDREQQAREAIGAVRPSAWNLLKDRQIVLFCLIYFCIQLTIYAATFWLPSIIKRMGDLSDMQVGFFNSIPWLISILAMYAFAAGSARWKFQQAWVAGALLVAATGMFMSTTGGPVFAFVAVCFAAIGFKSASSLFWPIPQGYLDARIAAAVIALINSVGNLGGFVAPTTFGLLEQQTGSIQGGLYGLAVTSVLAAIAIFFVRTRPKGAPSDDLKAPSALGQTH”, with “failed”.
Then “MARQTYGTTPWGAWFLDMLKAYDDSGRLSRGKTYANTGKVNSLVVNGQTAGAKVKGNYSPWYHVYFKFPPLSKTNKTAIRSILEKHPIELAGLRAGIMSPALIEALKKKKVRLIPARWNLIERDCTCPDSGDPCKHMAAVLFLLAKEIDHDPRLLFKLAGFDIDSINVPETEVFEKGGTQKLGLLQEQPVPLSLRKNETLNKAADLSSDSSVSETAHNSCELQSPLKFSLGESYLPLITNILPPEPNFSSSDFIIKLTEFYHKAVLNYGLNFYGQEKQSEKQEEKSVNPFLFARVKVNIDNIRKQKRAFPLEPKSPLTVNIKLGETHEINQTLLQAQNFYKTRNSLNEMSPSVKILFSLFALAGKLIQSSAFIPAVFTENKKLFIFWKSLSASSEIKADIFKFAASLTKDFFLPVGKWGRLYCAELLLTALLTEYAASLKFFPNKSYTKDKEIDKLFFLNEEIDISVPGKRNLDTVIYSWLSVLNYSNCGYEYRLTLEALKDDEFFLLSALVRKAKEKRIEAGDDSFALEAEAPFAELNTAAKRSKNPDDILRFPATLAAYLPALSILAIKKNVMLSREETGLFLQKSAKLLQRFGIDIVLPKSLKNILTPKPVISVKSVKGAGNIVSFLNIDDVLSYDRALMLGDTLIDIDEFKKLFLNKSGLVKFNDQFLLLDPEEVAKMLKALEKPADTKEVLQAVLSGNAVCSKPASEIIKNIFRQEEVPVPQNLNAELRPYQKQGYRWLYANIKSGFGCLLADDMGLGKTVQIISLMLSFKNSKEAESPFLVIAPASLLSNWEHEIAKFAPSLKTAVYHGAGRKFTTEADVIISTYQTMQKDIEKLKDKKVFCIILDEAQAIKNSGTKKAHAVKAIQARGRVALTGTPVENNLEDMRSIFDFFLPGYLGTADEFRKKWRIPIELHNSETEADDLKKITSPFLLRRLKTDPKVISDLPDKIITNQYCNLTPEQLAIYENLVETELHKVMGAETKIERQAYVLKLLTALKQVCNHPRAYDKETPIEMKYSGKAAVLIELLNEIISSGEKAIIFSQYVGTLDILKNIIQKELGTEPLLLHGQMPASKRKKAVEVFQTDSAYRIFLISLKAGGTGLNLTAANRVIHFDLWYNPAVEDQATDRAFRIGQTKNVFVHRLICSGTFEEKIDEMIQKKREISGMSISAGETWISKLSNEELAGLFKS”, with “failed”; and “MAVSNDITFADYFYQWYEVNKLPHVSESTKRHYESAYKHIKDHFRHKLLKDIKRTEYQKFLNEYGLTHSYETIRKLNSYIRNAFDDAIHEGYVIKNPTYKAELHASVPAKTELEHHHHHH”, with “not failed”.
With “MRLYERSSCLLQPPDYSLMNDSTDAQDVSQARVWLWAARPKTLGAAVAPVLVGTGMALEAGAWHLLSALLALAGAVLIQVGVNYHNDYADYVQGADTQERVGPLRVTQAGLVAPQTMRRATILVFGLAVMAGLYLIARGGWPILAVGVASIGAAIWYTAGRYSLAALGLADVFVFVFFGPVAVGGTYYVQALSLPTEVLLAGGGPGLLSIGILLVNNVRDVAEDRRAGKRTLVVRFGRRFGVAAYGACLVGALLLAGLLAAGLFGTTPHPWAALPLGLLPLAIGPIRRLSETTDPEKLNPLLGATGRILVLWALLFAVGWNL”, the protein production entry is reported as “failed”.
To “MLRTEHYAFLPCISRALEERDSLGIRRELRARQQRLSMQQSRSKLGRVCVTGANSPLGQELVGALTRTPDPSLRPDAIGVIGARDPIESHSAGAGLHFPGPGVDFLECAATDLEHYNPRTLFSINDDDLGLRRRSIFRENQVVIDLLRAQGETNEPRSKTRLVLVTLLGCGDSEDAIPSQAFDVLRPLLLELSRVEQYVRESGLPYTIVRPGALEHGDADSRAIVSESKVGFGTIHRSTLAHLLLNVAASEKAVNKTLMALDMNRLLVAAPYVRPFEVWESPPFEVFDL” belongs “not failed”.
As for “PATPKKIKKEKKVPKLPRKDYWQAAMVIIISSIVLIASLFMISPLSRQKEITVSGNKNAIESQLIEELGIKKSDYLTTLLFQANRFERNLKSKDKWVKEAKLVYHFPNHFTLRVKEYRIIAYRQTDKGYVPILENGTRVDTVNASELPGSFVTINLDQEKEVRELVQKLAKLDKSLVGSIKVISSVNSSSTKDLLLLEMKDNNSVRVPLSEIDTKLPYYSKIKKNLTDGSIVDMEVGIYSTTADIEASIAEHKTTATTESSENS”, the protein production result is given as “failed”.
